The results in this text go back to article doi:10.1101/2021.11.12.467822.

One experiment concerns the target full-length (FL) UBQLN2 (UniProt Q9UHD9). Kind of experiment: NMR titration.
Experiment [1] concerns the target fluorescently labeled K48-Ub4 (S20C on the most distal Ub, Alexa Fluor 488) (UniProt P0CG48). Kind of experiment: fluorescence polarisation.

The substance “ubiquitin (Ub) (from UniProt P0CG48 1-76) (natural protein; other documents disagree on this pair)” yielded a dissociation constant (Kd) in the experiment with full-length (FL) UBQLN2 of 3000 nM.
Consider “UBQLN2 450-624 (from UniProt Q9UHD9 450-624) (domain or fragment)”, for which the Kd in experiment [1] came to 2700 nM. In other words, the single-digit micromolar range.
